Results from article PMC8439657.

Assays:
[1] = biological target: Twin-Strep-tagged activated mTORC1 mutant A1459P (human) (UniProt P42345); assay: SPR; Biacore T200, CM5 chip; Twin-Strep-tagged mTORC1 captured on Strep-Tactin XT; DEPTOR PDZ (305-409) injected 120 s, 300 s dissociation, 1:2 dilution series from 20 µM; 50 mM HEPES pH 7.5, 100 mM NaCl, 1 mM TCEP; equilibrium responses fit to one-site specific binding with a linear non-specific component
[2] = biological target: Twin-Strep-tagged wild-type mTORC1 (human) (UniProt P42345); assay: as above
[3] = biological target: mTORC1 (wild-type human mTOR, RAPTOR, mLST8), Strep tag removed (human) (UniProt P42345)
[4] = biological target: mTORC1 (wild-type human mTOR, RAPTOR, mLST8), Strep tag removed (human) (UniProt P42345); remark: listed apart in the source
[5] = biological target: mTOR^ΔN-mLST8 complex (human) (UniProt P42345)
[6] = biological target: mTORC1 (wild-type human mTOR, RAPTOR, mLST8), Strep tag removed (human) (UniProt P42345); remark: listed apart in the source

Kd [1] [µM] | Kd [2] [µM] | IC50 of inhibition of mTORC1 kinase activity, phosphorylation of GST-S6K1 367-404 peptide (western blot, p-S6K1 Thr389) [3] [µM] | IC50 of inhibition of mTORC1 kinase activity, phosphorylation of wild-type 4EBP1 (western blot, p-4EBP1 Thr37/46) [3] [µM] | IC50 of inhibition of mTORC1 phosphorylation of the TOS-less 4EBP1 mutant, against wild-type 4EBP1 [4] [fold] | IC50 of inhibition of the kinase activity of monomeric mTOR^ΔN-mLST8 [5] [µM] | fold decrease of the IC50 of DEPTOR inhibition of 4EBP1 phosphorylation in the presence of RHEB-GTP, against mTORC1 alone [6] [fold] | Substance
0.6 | 7 |  |  |  |  |  | DEPTOR short-linker PDZ, residues 305-409 (from UniProt Q8TB45 305-409) (domain or fragment)
 |  | 51 | 14 | 2 | 0.4 | 400 | DEPTOR (DEP-domain containing mTOR-interacting protein), full length, residues 1-409 (from UniProt Q8TB45 1-409) (natural protein)
